Experimental data as given in paper PMC8136821 (Nucleic Acids Research, 2021).

Target: RhpA DEAD-box RNA helicase of H. pylori, recombinant, His-tagged (H. pylori)
Experiment: SPR

B1: H. pylori RNase R (HpRNase R), recombinant, His-tagged (enzyme)
chain: MQGFLRSLFFGVKKIPKPFAPLVEKGVLKEALELKKDRYFLKEGFDIGKVEKVKDKAFFISLAKNYPKDPLIKNLPPSFKTDALILCQIECSKKRPIAFFKAALLNADHTMIAYLAKKNNQIVAIPFKEPFKKPVSLKHSQKSLLELPRHCVVKIDTKKREISEILGALEDPLIDENLSLSLFDRVKDFSKDCLNLAQHYAQLKASDFKDRINYSHIPFITIDPKDAKDFDDAIFYDQEKRVLFVAVADVSEFVPKHSSLDKEARVRGFSVYFPNSVYPMLPLSLSQGACSLKAFEKRLALVYEIPLDNLKNARLSQGVIEVRANCTYEEINHFLSANQSSLDKDLQQSLLGFLEMALKLKKERLKKGFNFNSFENKLYLNKEGRIEKIETEKESDAHTLIEEAMLLANQSSARLLDEHFHNKGIYRTHKEPSLEQQKRLYDKLFDYEIVRPKNMGFFPFLEHALKIAKEKSIEREVSRLIIKSQNLALYSPLQESHFGLGFASYTHFTSPIRRYSDLALHRLLKELLFYQAKGCSYLLEETPELCAELNALQKKAALIERDFIKRKFARLALELLEKEFLGVVLEVKDWVVVGLKEFIGLKVLVKTNKVFKPLEKVRVTITHADLILGQVRGEITERIKEHVS
- Kd: 29 ± 4.4 nM
- kon: 35000 M⁻¹ s⁻¹
